B1: TMHC2 (transmembrane hairpin C2) (designed binder)
chain: MTRTEIIRELERSLRLQLVLAIFLMALLIVLLWLQQNGSSNNNVNYLLIVILVLVLVIVALAVTQKYLVEQLKRQD
notes: De novo designed two-helix transmembrane hairpin, entered here as one protomer; It was expressed from pET-28b with an N-terminal hexa-histidine tag and a thrombin site
B2: TMHC3 (designed binder)
chain: MSEELRAVADLQRLNIELARKLLIAVALLQLLNILLVMLTSELTDEKTILWMIVIVMFLSLAIVIVALREIRRAKEESRKIADESR
notes: De novo designed hairpin, entered as one protomer; It self-associates into a homotrimer with six TM helices; also called designed transmembrane trimer TMHC3; not shown: C-terminal hexa-histidine tag from pET-29b (gene without stop codon, NdeI/XhoI)

Legend:
[1] = biological target: the molecule itself; assay: AUC in detergent solution (C8E5); self-association to homodimer
Method: The dimer design with the shortest hydrophobic span (15 residues, TMHC2_S) was poorly behaved in both E. coli and mammalian cells, but the dimer designs with longer spans TMHC2, TMHC2_E and TMHC2_L localized to the cell membrane when expressed in HEK293T cells (data not shown) and in E. coli. The designed proteins were purified by extracting the E. coli membrane fraction with detergent, followed by nickel-NTA chromatography and size exclusion chromatography (SEC) with a yield of ˜2 mg/L (FIG. 6A-B). […] For the single chain scTMHC2 the major species in SEC was the monomer with a small side peak that was readily removed by purification (FIG. 6B).
Analytical ultracentrifugation (sedimentation velocity and sedimentation equilibrium) experiments were carried out using a Beckman XL-I analytical ultracentrifuge (Beckman Coulter) equipped with an eight-cell An-50 Ti rotor. The proteins were run in 20 mM sodium phosphate, pH 7.0, containing 200 mM NaCl supplemented with 0.5% C8E5, no density matching was necessary and the solvent density was calculated as 1.0075 g mL⁻¹. The partial specific volume of the protein was calculated by the program Sednterp™ (37). For sedimentation velocity, absorbance at 230 nm versus radial location was recorded during centrifugation at 50,000 rpm at 20° C. […] The data of sedimentation velocity and sedimentation equilibrium were analyzed using Sedfit™ and Sedphat™.

[2] = biological target: the molecule itself; assay: AUC in detergent solution; self-association to homotrimer
Excerpt: We used a similar approach to design a transmembrane trimer with six membrane spanning helices (TMHC3) based on the 5L6HC3_1 scaffold (PDB ID: 5IZS). Guided by the results with the C2 designs, we chose a hydrophobic span of ˜30 Å (20 residues) (FIG. 4A). The design was expressed in E. coli and purified to homogeneity, eluting on a gel filtration column as a single homogeneous species (FIG. 5C).
Analytical ultracentrifugation (sedimentation velocity and sedimentation equilibrium) experiments were carried out using a Beckman XL-I analytical ultracentrifuge (Beckman Coulter) equipped with an eight-cell An-50 Ti rotor. The proteins were run in 20 mM sodium phosphate, pH 7.0, containing 200 mM NaCl supplemented with 0.5% C8E5, no density matching was necessary and the solvent density was calculated as 1.0075 g mL⁻¹. The partial specific volume of the protein was calculated by the program Sednterp™ (37). For sedimentation velocity, absorbance at 230 nm versus radial location was recorded during centrifugation at 50,000 rpm at 20° C. For sedimentation equilibrium, data were collected by UV detector at 20° C. for at least two protein concentrations at three rotor speeds. The data of sedimentation velocity and sedimentation equilibrium were analyzed using Sedfit™ and Sedphat™.

| Protein | binding result [1] | binding result [2] |
| --- | --- | --- |
| B1 | binds |  |
| B2 |  | binds |
